This note sets out measurements from publication PMC10400533, “Exploring the G-quadruplex binding and unwinding activity of the bacterial FeS helicase DinG”.

Data set [1] addresses T1, DinG helicase (Escherichia coli, UniProt P27296 1-716).
T1 sequence: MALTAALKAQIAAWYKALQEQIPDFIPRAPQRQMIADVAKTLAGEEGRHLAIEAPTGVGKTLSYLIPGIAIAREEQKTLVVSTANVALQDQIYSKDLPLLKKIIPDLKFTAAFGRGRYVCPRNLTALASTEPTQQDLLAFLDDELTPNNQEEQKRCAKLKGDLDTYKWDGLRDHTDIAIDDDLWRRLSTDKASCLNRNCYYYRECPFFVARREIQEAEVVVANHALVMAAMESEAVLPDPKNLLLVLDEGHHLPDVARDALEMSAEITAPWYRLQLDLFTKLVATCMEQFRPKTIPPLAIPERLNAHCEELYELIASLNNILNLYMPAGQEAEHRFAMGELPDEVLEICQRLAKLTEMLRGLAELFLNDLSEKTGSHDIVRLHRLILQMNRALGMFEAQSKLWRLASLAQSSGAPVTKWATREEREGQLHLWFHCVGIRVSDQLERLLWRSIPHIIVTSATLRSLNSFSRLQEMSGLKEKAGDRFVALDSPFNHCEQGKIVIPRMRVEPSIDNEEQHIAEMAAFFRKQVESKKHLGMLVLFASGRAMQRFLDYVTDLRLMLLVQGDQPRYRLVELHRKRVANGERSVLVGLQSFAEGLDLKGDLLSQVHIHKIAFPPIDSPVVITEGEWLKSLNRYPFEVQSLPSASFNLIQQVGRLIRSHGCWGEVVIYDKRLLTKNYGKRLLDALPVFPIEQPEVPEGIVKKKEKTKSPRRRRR
Kind of data set: SPR; SPR single-cycle kinetics, 25 C, DinG immobilized, DNA 0.062-1 uM; DNA prepared in 10 mM potassium phosphate, 50 mM KCl, pH 7.5; SPR running buffer not in material. Conditions: protein: recombinant, tags: His-tag. In general terms: Surface plasmon resonance follows binding to a sensor surface in real time, without labels.

Data set [2] has as its target T1, DinG helicase. Kind of data set: SPR; Netropsin; SPR single-cycle kinetics, 25 C, DinG immobilized, DNA 0.062-1 uM; DNA prepared in 10 mM potassium phosphate, 50 mM KCl, pH 7.5; SPR running buffer not in material. Conditions: protein: recombinant; tags: His-tag; parallel unimolecular G4.

GGTGGGGGGGCGGGGGAGGCCGGG (structured_DNA) [Zic1]: the Kd in data set [1] (parallel G4) came out at 22.8 nM.

B1: DNA-fork (D1/D2) (dsDNA)
DNA 1: CTACTACCCCCACCCTCACAACCTTTTTTTTTTTTTT
DNA 2: TTTTTTTTTTTTTTGGTTGTGAGGGTGGGGGTAGTAG
For the molecule B1, the Kd in data set [1] (fork 1:2, 23 bp duplex, 3' T14 tail on strand 1 and 5' T14 tail on strand 2) was found to be 55.9 nM.

In the case of GGTGGGGAGGGGTAAGGGG (structured_DNA) [EC-6], the Kd in data set [1] (G4) turned out to be 36.7 nM.

Take TAGGGTTAGGGTTAGGGTTAGGG (structured_DNA) [Tel23]: the Kd in data set [1] (hybrid [3+1] unimolecular G4) came out at 9.4 nM.

Turning to AGGGCGGTGTGGGAATAGGGAA (structured_DNA) [KRAS], the Kd in data set [1] (parallel unimolecular G4) was found to be 46.4 nM.

With GGGTGGGTGGGTGGGT (structured_DNA) [T30695], the Kd in data set [1] (dimeric parallel G4 of 2 strands) stood at 163 nM.

For GGGCGCGGGAGGAATTGGGCGGG (structured_DNA) [BCL2], the Kd in data set [1] (hybrid [3+1] unimolecular G4) was 21 nM.

As for GGGGGAGGAGGACGGGGG (structured_DNA) [EC-7], the Kd in data set [1] (G4) stood at 56.9 nM.

With GTGTGTGTGTGTGTGTGTGTGTGTGTGTGT (ssDNA) [G-scramble], in data set [1] (no G4 or other secondary structure), the Kd was found to be 126 nM.

Consider GGGGCGGGGTGGGTTGG (structured_DNA) [EC-9], for which the Kd in data set [1] (G4) came out at 34.9 nM.

In the case of AGGGTGGGTAGGGTGGGT (structured_DNA) [c-MYC], in data set [1] (parallel unimolecular G4), the Kd was determined as 30.6 nM.

In the case of AGGGAGGGCGCTGGGAGGAGGG (structured_DNA) [c-KIT1], the values for the Kd in data set [1] (parallel unimolecular G4) and in data set [2] were 28.9 nM and 31.5 nM, respectively.

For orientation: Kd means the equilibrium constant for the complex coming apart.
